Assay results as given in publication PMC6251626, “Structural basis of tubulin recruitment and assembly by microtubule polymerases with tumor overexpressed gene (TOG) domain arrays” (eLife, 2018).
Each block holds one binder with its values, some of them ahead of it.

Columns and labels:
[1] = target: T1, αβ-tubulin heterodimer purified from porcine brains (porcine, UniProt P02550 1-451; P02554 1-445); test: SEC; quantitative SEC (Superdex 200 10/300) with SDS-PAGE densitometry of fractions; 2 αβ-tubulin per Alp14 subunit, with or without DRP; 200 mM KCl, 50 mM HEPES pH 7.0, 1 mM MgCl2, 1 mM β-mercaptoethanol; conditions: both partners purified
T1 construct: α-tubulin of porcine brain; β-tubulin of porcine brain; Brain tubulin is a mixture of isotypes; Chains also in PDB 6MZF, 6MZE, 6MZG; also called soluble porcine αβ-tubulin; source: purified from porcine brains (two GTP-polymerization cycles at high ionic strength); copies: 1 + 1

[2] = target: T1, αβ-tubulin heterodimer purified from …; test: SEC-MALS; Alp14 constructs mixed with soluble αβ-tubulin (with or without DRP), Superdex 200 Increase 10/300, 80-100 mM KCl; conditions: both partners purified
[3] = target: T1, αβ-tubulin heterodimer purified from …; test: SEC; quantitative SEC (Superdex 200 10/300) with SDS-PAGE densitometry of fractions; 2 αβ-tubulin per Alp14 subunit, with or without DRP; 100 mM KCl, 50 mM HEPES pH 7.0, 1 mM MgCl2, 1 mM β-mercaptoethanol; conditions: both partners purified
[4] = target: the molecule itself; test: SEC-MALS; isolated proteins alone, 200 mM KCl

TOG1-TOG2:αβ-tubulin molar ratio [1]: 1.46 | stoichiometry N [2]: ~4 | TOG1-TOG2:αβ-tubulin molar ratio [3]: 1.86
B1: INT1+2 (Alp14-dimer with interfaces 1 and 2 inactivated) (domain or fragment)
chain: MSQDQEEDYSKLPLESRIVHKVWKVRLSAYEECSKSFSDAAAGSDNCFELWNNQSELWKSVLTDSNVAAQEAGTAAFVAYCRFSDPSHLLKAREISVLSISEKCLTSPRAGTRENALEALMLLVEADSAAPVIESIIPSLSARSPKVIASNVAAIASLVEQFGAKVIPSKMIIPHISNLFGHADKNVRKEASRLTVNIYRWTGDPAKDALFKDLRPVQTKELESLFAELPTEPPKQTRFLKSQQPTSEPNVETQVEEQPALENEESEPEPSDDQRAAAEEVDVLPNVDPNLETLMASSKWKDRKEALDKLLPVLSQPKILDNDFFNLVAILTKSVSKDANIMVVINAAHCIQAMAKGLASNFSKYASTSINALLERSKEKKANVIESLSSAMDAVLATSSLDDLAELIASFAGNKNPQIKSSCFSLFSRSFSNMTSDPAKFTVDTCAKACVPGVSDTFEPVRSAAAEALGVLMKLVGAAAINQYLSPLDDIRKSKIRSFYETATVKAKAPTKKSKVKPSKQEESKVVVPSNAKAVKKSVVPSSPVVPSPRKATNKSLSMDVSKGNAFENGPLLPRPTTRPVSRGLSRGTSSSLQQKVKASTPLNSGALNETVQNLKNMELDDPAPQPAKHSRVDRYEHPKVLEDNDSTISSLESLKRENEELREQLKVEHEENISMQKQLSELKGELNTL

B2: wt-Alp14-dimer (S. pombe Alp14 residues 1-690) (domain or fragment, UniProt O94534 1-690, looked up)
chain: MSQDQEEDYSKLPLESRIVHKVWKVRLSAYEECSKSFSLSADGSDNCFELWNNQSELWKSVLTDSNVAAQEAGTAAFVAYCRFSDPSHLLKAREISVLSISEKCLTSPRAGTRENALEALMLLVEADSAAPVIESIIPSLSARSPKVIASNVAAIASLVEQFGAKVIPSKMIIPHISNLFGHADKNVRKEASRLTVNIYRWTGDPLKDLLFKDLRPVQTKELESLFAELPTEPPKQTRFLKSQQPTSEPNVETQVEEQPALENEESEPEPSDDQFDLVEEVDVLPNVDPNLETLMASSKWKDRKEALDKLLPVLSQPKIKDNDFFNLVAILTKSVSKDANIMVVINAAHCIQAMAKGLRSNFSKYASTSINALLERSKEKKANVIESLSSAMDAVLATSSLDDLAELIASFAGNKNPQIKSSCFSLFSRSFSNMTSLPSKFTVDTCAKACVPGVSDTFEPVRSAAAEALGVLMKLVGERAINQYLSPLDDIRKSKIRSFYETATVKAKAPTKKSKVKPSKQEESKVVVPSNAKAVKKSVVPSSPVVPSPRKATNKSLSMDVSKGNAFENGPLLPRPTTRPVSRGLSRGTSSSLQQKVKASTPLNSGALNETVQNLKNMELDDPAPQPAKHSRVDRYEHPKVLEDNDSTISSLESLKRENEELREQLKVEHEENISMQKQLSELKGELNTL
notes: Alp14 (Alp14p), S. pombe, residues 1-690 (TOG1-TOG2, SK-rich region, coiled coil); also called dimeric Alp14; source: E. coli BL21, purified (Ni-IDA and/or ion exchange, SEC)
stoichiometry N [4]: 2
